We go through two molecules from patent US20070178531A1 (BIOCHECK, published 2007).

Substitutions are numbered along the chain they refer to.

Experiment [1] addresses T1, Human Id2: Histidine (human, UniProt Q02363 1-134, limits assumed).
T1 construct: Fusion protein made in E. coli from vector pGW07; also called h-Id2: His; not shown: His tag
T1 sequence (looked up): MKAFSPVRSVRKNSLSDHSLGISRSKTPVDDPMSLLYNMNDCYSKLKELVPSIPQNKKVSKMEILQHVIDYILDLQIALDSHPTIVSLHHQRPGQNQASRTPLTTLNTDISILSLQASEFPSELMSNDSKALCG
In words: ELISA, Ab 0.100 µg/ml. On the technique in general: ELISA stands for enzyme-linked immunosorbent assay.

Experiment [2] has as its target T2, Human Id3: Histidine (human, UniProt Q02535 1-119 at identity 1.00)).
T2 construct: Fusion protein made in E. coli from vector pGW07; also called h-Id3: His; Human Id3 (coated wells); not shown: His tag
T2 chain: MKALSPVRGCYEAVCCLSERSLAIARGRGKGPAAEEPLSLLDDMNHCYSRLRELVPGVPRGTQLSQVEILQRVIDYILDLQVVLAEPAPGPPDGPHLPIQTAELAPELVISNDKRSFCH
In words: ELISA, Ab 0.100 µg/ml.

Experiment [3] deals with T3, Human Id1: Histidine (human, UniProt P41134 1-155, limits assumed).
T3 construct: Fusion protein made in E. coli from vector pGW07; also called h-Id1: his; not shown: His tag
T3 sequence (looked up): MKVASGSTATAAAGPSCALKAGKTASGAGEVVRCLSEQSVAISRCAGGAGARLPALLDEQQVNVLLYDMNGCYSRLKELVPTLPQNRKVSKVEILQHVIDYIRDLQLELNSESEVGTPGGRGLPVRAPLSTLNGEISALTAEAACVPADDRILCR
In words: ELISA, Ab 0.100 µg/ml.

Experiment [4] has as its target T4, Mouse Id1: Histidine (mouse, UniProt P20067-2 1-148, limits assumed).
T4 construct: Fusion protein made in E. coli from vector pGW07; also called m-Id1-His; not shown: His tag
T4 sequence (looked up): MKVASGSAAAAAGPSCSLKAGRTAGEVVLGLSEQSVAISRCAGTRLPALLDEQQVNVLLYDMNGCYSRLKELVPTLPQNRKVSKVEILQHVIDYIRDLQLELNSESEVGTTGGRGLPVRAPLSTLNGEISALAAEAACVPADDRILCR
In words: ELISA, Ab 0.100 µg/ml.

Experiment [5] has as its target T5, Mouse Id2: Histidine (mouse, UniProt P41136 1-134, limits assumed).
T5 construct: Fusion protein made in E. coli from vector pGW07; also called m-Id2: His; not shown: His tag
T5 sequence (looked up): T1 sequence (looked up) with S60T, A131V
Kind of experiment: ELISA, Ab 0.100 µg/ml.

Experiment [6] has as its target T6, Mouse Id3: Histidine (mouse, UniProt P41133 1-119).
T6 construct: Fusion protein made in E. coli from vector pGW07; also called m-Id3: His; Mouse Id3 (coated wells); not shown: His tag
T6 sequence: T2 chain with G31S, A33S, A34T, A105T, N112K
In words: ELISA, Ab 0.100 µg/ml.

Experiment [7] has as its target T1, Human Id2: Histidine. In words: ELISA, Ab 0.250 µg/ml.
The target of experiment [8] is T2, Human Id3: Histidine. Kind of experiment: ELISA, Ab 0.250 µg/ml.
Experiment [9] concerns the target T3, Human Id1: Histidine. Kind of experiment: ELISA, Ab 0.250 µg/ml.
Experiment [10] addresses T4, Mouse Id1: Histidine. Kind of experiment: ELISA, Ab 0.250 µg/ml.
The target in experiment [11] is T5, Mouse Id2: Histidine. Kind of experiment: ELISA, Ab 0.250 µg/ml.
Experiment [12] has as its target T6, Mouse Id3: Histidine. In words: ELISA, Ab 0.250 µg/ml.
Experiment [13] concerns the target T1, Human Id2: Histidine. In words: ELISA on coated wells, summary.
Another experiment deals with T7, Human Id4: Histidine (human, UniProt P47928 1-161, limits assumed).
T7 construct: Fusion protein made in E. coli from vector pGW07; also called h-Id4: His; not shown: His tag
T7 sequence (looked up): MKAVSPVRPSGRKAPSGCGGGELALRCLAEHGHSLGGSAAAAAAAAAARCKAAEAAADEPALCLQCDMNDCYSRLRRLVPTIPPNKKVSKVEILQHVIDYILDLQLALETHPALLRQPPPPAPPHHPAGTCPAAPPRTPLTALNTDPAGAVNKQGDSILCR
Kind of experiment: ELISA on coated wells, summary.

Experiment [14] deals with T5, Mouse Id2: Histidine. In words: ELISA on coated wells, summary.

B1: rabbit monoclonal anti-mouse/human Id3, clone #BCH-4/#6-1 (antibody, V domains shown)
VH: QSVEESGGRLVTPGTPLTLTCTASGFSLSNVYIHWVRQAPGKGLEWIGYISDGDTARYATWAKGRFTISKTSSTTVNLKMTSLTTEDTATYFCARQGFNIWGPGTLVTVSL
VL: AVLTQTPSPVSAAVGGTVSISCQSSQSVWNNNWLSWFQQKPGQPPKLLIYETSKLESGVPSRFKGSGSGTQFTLTISDVQCDDAATYYCLGGYWTTSDNNVFGGGTEVVVK
notes: Rabbit IgG from a rabbit hybridoma; also called m/h Id3 MoAb 6-1
For B1, the A450 in the experiment with Human Id2: Histidine [1] turned out to be 0.058 A450; with Human Id3: Histidine [2], 1.98 A450; in the experiment with Human Id1: Histidine [3] it was 0.083 A450; in the experiment with Mouse Id1: Histidine [4], 0.085 A450; with Mouse Id2: Histidine [5], 0.067 A450; with Mouse Id3: Histidine [6], 2.42 A450. For the same molecule, the A450 with Human Id2: Histidine [7] turned out to be 0.071 A450; in the experiment with Human Id3: Histidine [8] it was 2.74 A450; with Human Id1: Histidine [9], 0.061 A450; in the experiment with Mouse Id1: Histidine [10], 0.058 A450; with Mouse Id2: Histidine [11], 0.071 A450; in the experiment with Mouse Id3: Histidine [12], 3.13 A450.

B2: rabbit monoclonal anti-human Id3, clone #BCH-4/#3-3 (antibody, V domains shown)
VH: QSVEESGGRLVTPGTPLTLTCTVSGIDLSSYAMSWVRQAPGKGLEWIGVIFPSNNVYYASWAKGRFTISKTSTTVDLKITSPTTEDTATYFCASMGAFDSWGPGTLVTVSS
VL: QVLTQTPSPVSAAVGGTVTINCQASQSIYNDNDLAWFQQKPGQPPKLLIYDASTLTSGVPSRFKGSGSGTQFTLTISDLDCDDAATYYCAARYSGNIYGFGGGTEVVVK
notes: Rabbit IgG from a rabbit hybridoma; also called h Id3 MoAb 3-3
With B2, the “Cross-reactivity (%)” value with Human Id2: Histidine [13], with Human Id4: Histidine and with Mouse Id2: Histidine [14] was under 1% each time.
